Each block holds one binder with its values, some of them ahead of it. Square brackets hold non-standard residues; d marks the D form. Ends that are not written are not given here. pY = N[C@@H](Cc1ccc(OP(=O)(O)O)cc1)C(=O)O
What was measured:
[1] = biological target: T1, SHP2 tandem domain N-SH2-C-SH2-SHP2 1-222 (human, UniProt Q06124 1-222); assay: ITC
T1 sequence (looked up): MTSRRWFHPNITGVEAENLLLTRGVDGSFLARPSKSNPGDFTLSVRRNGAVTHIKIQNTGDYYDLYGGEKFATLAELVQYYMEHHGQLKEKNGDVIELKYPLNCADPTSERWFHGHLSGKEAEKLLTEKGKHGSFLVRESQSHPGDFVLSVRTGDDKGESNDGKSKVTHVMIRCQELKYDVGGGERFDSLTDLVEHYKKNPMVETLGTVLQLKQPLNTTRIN

[2] = biological target: T2, SHP2 C-SH2 domain 102-220 (human, UniProt Q06124 102-220); assay: ITC
T2 sequence (looked up): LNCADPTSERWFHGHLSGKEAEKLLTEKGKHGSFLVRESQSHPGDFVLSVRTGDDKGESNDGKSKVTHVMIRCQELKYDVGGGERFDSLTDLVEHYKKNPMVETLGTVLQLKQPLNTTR

Kd [1]: 37 ± 13 nM
B1: pY627pY659-Gab1 613-694 (bis-phosphorylated fragment of Grb2-associated binding protein 1) (peptide, UniProt Q13480 613-694, looked up)
chain: SSPMIKPKGDKQVEYLDLDLDSGKSTPPRKQKSSGSGSSVADERVDYVVVDQQKTLALKSTREAWTDGRQSTESETPAKSVK
modifications: phosphotyrosine at 627 and 659

Kd [2]: 4000 nM
Binder: ERVD[pY]VVVDQQKTLALKSTREAW (peptide, UniProt Q13480 655-677, looked up) [pY659-Gab1 655-677 monophosphorylated peptide]

fold reduction of affinity against pY659-Gab1 655-677 [2]: 10 fold
Binder: ERVD[pY]VVVDQQK (peptide, UniProt Q13480 655-666, looked up) [pY659-Gab1 655-666 monophosphorylated peptide (C-terminally truncated)]
